Key:
Assay in all cases: fluorescence anisotropy
Conditions in all cases: Hill slope fit; 10 nM 6-FAM ssDNA, 0.001-6 uM protein, 20 min at 30 C, read at room temperature; binding buffer not stated (protein storage FP buffer: 200 mM NaCl, 50 mM …)
[1] = tested on: condensin holocomplex, Smc4-L1333V-L1335A (Saccharomyces cerevisiae (overexpressed in strain D1074))
[2] = tested on: condensin holocomplex, Smc4-L1335A (Saccharomyces cerevisiae (overexpressed in strain D1074))
[3] = tested on: condensin holocomplex, Smc4-L1333I-L1335A (Saccharomyces cerevisiae (overexpressed in strain D1074))
[4] = tested on: condensin holocomplex, Smc4-A1376S-Q1377A (Saccharomyces cerevisiae (overexpressed in strain D1074))
[5] = tested on: condensin holocomplex, Smc4-K191M (Saccharomyces cerevisiae (overexpressed in strain D1074))
[6] = tested on: condensin holocomplex, wild-type Smc4 (Saccharomyces cerevisiae (overexpressed in strain D1074))
[7] = tested on: condensin holocomplex, Smc4-Q1377A (Saccharomyces cerevisiae (overexpressed in strain D1074))

Question: For 6-FAM 60-nt ssDNA, which Kd [1] is on record?
Answer: 148 nM

Question: What about the Kd [2] of the same substance?
Answer: 193 nM

Question: And the Kd [3]?
Answer: 92.8 nM

Question: And the Kd [4]?
Answer: 171 nM

Question: What about the Kd [5] of the same substance?
Answer: 76.7 nM

Question: And the Kd [6]?
Answer: 252 nM

Question: What about the Kd [7] of the same substance?
Answer: 216 nM

From publication PMC6039025
